# Data from patent US20180155451A1 (published 2018).
# T1: FcγRIIa R type extracellular domain with C-terminal His tag (human, UniProt P12318 34-217)
# T1 construct: extracellular domain; also called FcgRIIa R; FcgRIIaR; not shown: His tag at the C terminus
# T1 sequence (looked up): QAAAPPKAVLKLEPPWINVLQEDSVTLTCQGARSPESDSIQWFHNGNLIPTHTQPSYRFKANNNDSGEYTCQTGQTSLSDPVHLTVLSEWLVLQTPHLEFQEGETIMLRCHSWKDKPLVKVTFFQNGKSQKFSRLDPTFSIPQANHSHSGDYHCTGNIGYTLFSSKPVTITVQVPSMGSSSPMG
# T2: FcγRIIa H type extracellular domain with C-terminal His tag (human, UniProt P12318 34-217)
# T2 construct: extracellular domain; also called FcgRIIa H; FcgRIIaH; not shown: His tag at the C terminus
# T2 sequence (looked up): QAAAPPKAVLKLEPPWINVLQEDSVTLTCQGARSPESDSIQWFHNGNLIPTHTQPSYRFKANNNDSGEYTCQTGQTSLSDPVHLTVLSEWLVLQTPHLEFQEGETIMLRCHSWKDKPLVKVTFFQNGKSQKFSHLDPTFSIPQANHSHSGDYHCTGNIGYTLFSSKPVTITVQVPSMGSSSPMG
# T3: FcγRIIb extracellular domain with C-terminal His tag (human, UniProt P31994 43-217)
# T3 construct: extracellular domain; also called FcgRIIb; 2b; not shown: His tag at the C terminus
# T3 sequence (looked up): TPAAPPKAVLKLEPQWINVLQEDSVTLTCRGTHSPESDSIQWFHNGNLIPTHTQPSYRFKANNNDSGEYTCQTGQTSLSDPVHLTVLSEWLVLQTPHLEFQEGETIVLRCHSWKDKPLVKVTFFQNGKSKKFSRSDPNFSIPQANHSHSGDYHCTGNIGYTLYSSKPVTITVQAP
# Key:
# Assay in all cases: SPR (Biacore), antibody captured on chip, soluble FcgR as analyte; experiment 2
# [1] = target: T4, FcγRIa extracellular domain with C-terminal His tag (human, UniProt P12314 16-292)
# T4 construct: extracellular domain; also called FcgRI; FcgRIa; not shown: His tag at the C terminus
# T4 sequence (P12314 16-292): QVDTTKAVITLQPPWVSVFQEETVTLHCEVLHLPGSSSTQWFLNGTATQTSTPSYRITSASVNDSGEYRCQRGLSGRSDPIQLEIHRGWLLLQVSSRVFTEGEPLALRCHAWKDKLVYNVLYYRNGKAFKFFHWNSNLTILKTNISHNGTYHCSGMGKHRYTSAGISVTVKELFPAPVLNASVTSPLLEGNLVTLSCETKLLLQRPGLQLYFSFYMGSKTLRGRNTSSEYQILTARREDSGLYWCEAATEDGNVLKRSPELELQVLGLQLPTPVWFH
# Description: (§1) Antibodies of interest were analyzed for the interaction to FcgR according to the method described in Reference Example 8.
# (§2) Analysis of interaction between obj ective antibody and the FcγR was carried out using Biacore T100 (GE Healthcare), Biacore T200, Biacore A100, and Biacore 4000. HBS-EP+ (GE Healthcare) was used as the running buffer, and the measurement temperature was set to 25° C. Chips produced by immobilizing the antigen peptide by the amine coupling method to a Series S sensor Chip CM5 (GE Healthcare), chips produced by allowing preliminarily biotinylated antigen peptides to interact with and immobilize onto a Series S Sensor Chip SA (certified) (GE Healthcare), chips produced by immobilizing Protein L (ACTIGEN, BioVision) to Series S Sencor Chip CM5 (GE Healthcare), or chips produced by immobilizing Protein A/G (Thermo Scientific) to Series S Sencor Chip CM5 (GE Healthcare) were used. Antibodies of interest were captured onto these chips, and allowed to interact to each FcγR diluted with running buffer. To regenerate and repeatedly use the chip, the antibodies captured onto the chip were washed off by reacting 10 mM glycine-HCl, pH 1.5.
# [2] = target: T1, FcγRIIa R type extracellular domain …
# Description: as §1, §2
# [3] = target: T2, FcγRIIa H type extracellular domain …
# Description: as §1, §2
# [4] = target: T3, FcγRIIb extracellular domain with …
# Description: as §1, §2
# [5] = target: T5, FcγRIIIa F type extracellular domain with C-terminal His tag (human, UniProt P08637 17-208)
# T5 construct: extracellular domain; also called FcgRIIIa F; FcgRIIIaF; not shown: His tag at the C terminus
# T5 sequence (P08637 17-208): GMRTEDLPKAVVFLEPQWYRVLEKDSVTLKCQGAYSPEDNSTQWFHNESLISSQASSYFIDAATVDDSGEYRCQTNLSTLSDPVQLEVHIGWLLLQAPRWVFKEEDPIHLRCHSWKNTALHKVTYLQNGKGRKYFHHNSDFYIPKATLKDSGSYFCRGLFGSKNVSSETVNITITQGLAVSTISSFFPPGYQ
# Description: as §1, §2
# [6] = target: T6, FcγRIIIa V type extracellular domain with C-terminal His tag (human, UniProt P08637 17-208)
# T6 construct: extracellular domain; also called FcgRIIIa V; FcgRIIIaV; not shown: His tag at the C terminus
# T6 sequence (P08637 17-208 F176V): as the sequence (P08637 17-208) above, with F160V counted along it
# Description: as §1, §2
Binder,Kd [1],Kd [2],Kd [3],Kd [4],Kd [5],Kd [6]
"H240-FA009/H240-FB021/L73-k0 (antibody, human IgG1, kappa, Heterodimerized anti-EREG IgG1 antibody; A chain altered from H240-AK072, B chain altered from H240-BH076) heavy 1: QDQLVQSGAEVKKPGASVKVSCKASGFNIKDTYIQWVRQAPGQGLEWMGRIDPLRKQTKYREKFEGRVTITADTSTNTAYMELSSLRSEDTAVYYCVRSGREFDYWGQGTLVTVSSASTKGPSVFPLAPSSKSTSGGTAALGCLVKDYFPEPVTVSWNSGALTSGVHTFPAVLQSSGLYSLSSVVTVPSSSLGTKTYICNVNHKPSNTKVDKKVEPKSCDKTHTCPPCPAPEYYWGPSVFLFPPKPKDTLMISRTPEVTCVVVDVSDEEPEVKFNWYVDGVEVHNAKTKPREEQYNATYRVVSVLTVLHQDWLNGKEYKCKVSNKALPAPIEKTISKAKGQPREPQVYTLPPSRKEMTKNQVSLTCLVKGFYPSDIAVEWESNGQPENNYKTTPPVLDSDGSFFLYSKLTVDKSRWQQGNVFSCSVMHEALHNRYTQKSLSLSP heavy 2: QDQLVQSGAEVKKPGASVKVSCKASGFNIKDTYIQWVRQAPGQGLEWMGRIDPLRKQTKYREKFEGRVTITADTSTNTAYMELSSLRSEDTAVYYCVRSGREFDYWGQGTLVTVSSASTKGPSVFPLAPSSKSTSGGTAALGCLVKDYFPEPVTVSWNSGALTSGVHTFPAVLQSSGLYSLSSVVTVPSSSLGTQTYICNVNHKPSNTKVDKKVEPKSCDKTHTCPPCPAPELLGGPSVFLFPPKPKDTLMISRTPEVTCVVVDVSHEEPEVQFNWYVDGVEVHNAETKPREEQYNSTYRVVSVLTVLHQDWLNGKEYKCKVSNDALPMPIEETISKAKGQPREPQVYTLPPSREEMTKNQVSLTCLVKGFYPSDIAVEWESNGQPENNYKTTPPVLDSDGSFFLYSKLTVDKSRWQQGNVFSCSVMHEALHNHYTQESLSLSP light: DIQMTQSPSSLSASVGDRVTITCRASQDIHKYIAWYQQKPGQAPRLLIQYTSTLQPGVPSRFSGSGSGTDYTFTISSLQPEDIATYYCLQYEQLRTFGGGTKVEIKRTVAAPSVFIFPPSDEQLKSGTASVVCLLNNFYPREAKVQWKVDNALQSGNSQESVTEQDSKDSTYSLSSTLTLSKADYEKHKVYACEVTHQGLSSPVTKSFNRGEC",0.051 nM,280 nM,70 nM,2200 nM,3.7 nM,0.78 nM
"H240-FA009/H240-FB047/L73-k0 (antibody, human IgG1, kappa, Heterodimerized anti-EREG IgG1 antibody; A chain altered from H240-AK072, B chain altered from H240-BH076) heavy 1: QDQLVQSGAEVKKPGASVKVSCKASGFNIKDTYIQWVRQAPGQGLEWMGRIDPLRKQTKYREKFEGRVTITADTSTNTAYMELSSLRSEDTAVYYCVRSGREFDYWGQGTLVTVSSASTKGPSVFPLAPSSKSTSGGTAALGCLVKDYFPEPVTVSWNSGALTSGVHTFPAVLQSSGLYSLSSVVTVPSSSLGTKTYICNVNHKPSNTKVDKKVEPKSCDKTHTCPPCPAPEYYWGPSVFLFPPKPKDTLMISRTPEVTCVVVDVSDEEPEVKFNWYVDGVEVHNAKTKPREEQYNATYRVVSVLTVLHQDWLNGKEYKCKVSNKALPAPIEKTISKAKGQPREPQVYTLPPSRKEMTKNQVSLTCLVKGFYPSDIAVEWESNGQPENNYKTTPPVLDSDGSFFLYSKLTVDKSRWQQGNVFSCSVMHEALHNRYTQKSLSLSP heavy 2: QDQLVQSGAEVKKPGASVKVSCKASGFNIKDTYIQWVRQAPGQGLEWMGRIDPLRKQTKYREKFEGRVTITADTSTNTAYMELSSLRSEDTAVYYCVRSGREFDYWGQGTLVTVSSASTKGPSVFPLAPSSKSTSGGTAALGCLVKDYFPEPVTVSWNSGALTSGVHTFPAVLQSSGLYSLSSVVTVPSSSLGTQTYICNVNHKPSNTKVDKKVEPKSCDKTHTCPPCPAPELLGGPSVFLFPPKPKDTLMISRTPEVTCVVVDVSHEEPEVQFNWYVDGVEVHNAKTKPREEQYNSTYRVVSVLTVLHQDWLNGKEYKCKVSNDALPMPIEETISKAKGQPREPQVYTLPPSREEMTKNQVSLTCLVKGFYPSDIAVEWESEGQPENNYKTTPPVLDSDGSFFLYSKLTVDKSRWQQGNVFSCSVMHEALHNHYTQESLSLSP light: DIQMTQSPSSLSASVGDRVTITCRASQDIHKYIAWYQQKPGQAPRLLIQYTSTLQPGVPSRFSGSGSGTDYTFTISSLQPEDIATYYCLQYEQLRTFGGGTKVEIKRTVAAPSVFIFPPSDEQLKSGTASVVCLLNNFYPREAKVQWKVDNALQSGNSQESVTEQDSKDSTYSLSSTLTLSKADYEKHKVYACEVTHQGLSSPVTKSFNRGEC",0.05 nM,270 nM,74 nM,1700 nM,4.4 nM,1.1 nM
"H240-FA009/H240-FB033/L73-k0 (antibody, human IgG1, kappa, Heterodimerized anti-EREG IgG1 antibody; A chain altered from H240-AK072, B chain altered from H240-BH076) heavy 1: QDQLVQSGAEVKKPGASVKVSCKASGFNIKDTYIQWVRQAPGQGLEWMGRIDPLRKQTKYREKFEGRVTITADTSTNTAYMELSSLRSEDTAVYYCVRSGREFDYWGQGTLVTVSSASTKGPSVFPLAPSSKSTSGGTAALGCLVKDYFPEPVTVSWNSGALTSGVHTFPAVLQSSGLYSLSSVVTVPSSSLGTKTYICNVNHKPSNTKVDKKVEPKSCDKTHTCPPCPAPEYYWGPSVFLFPPKPKDTLMISRTPEVTCVVVDVSDEEPEVKFNWYVDGVEVHNAKTKPREEQYNATYRVVSVLTVLHQDWLNGKEYKCKVSNKALPAPIEKTISKAKGQPREPQVYTLPPSRKEMTKNQVSLTCLVKGFYPSDIAVEWESNGQPENNYKTTPPVLDSDGSFFLYSKLTVDKSRWQQGNVFSCSVMHEALHNRYTQKSLSLSP heavy 2: QDQLVQSGAEVKKPGASVKVSCKASGFNIKDTYIQWVRQAPGQGLEWMGRIDPLRKQTKYREKFEGRVTITADTSTNTAYMELSSLRSEDTAVYYCVRSGREFDYWGQGTLVTVSSASTKGPSVFPLAPSSKSTSGETAALGCLVKDYFPEPVTVSWNSGALTSGVHTFPAVLQSSGLYSLSSVVTVPSSSLGTQTYICNVNHKPSNTKVDKKVEPKSCDKTHTCPPCPAPELLGGPSVFLFPPKPKDTLMISRTPEVTCVVVDVSHEEPEVQFNWYVDGVEVHNAKTKPREEQYNSTYRVVSVLTVLHQDWLNGKEYKCKVSNDALPMPIEETISKAKGQPREPQVYTLPPSREEMTKNQVSLTCLVKGFYPSDIAVEWESNGQPENNYKTTPPVLDSDGSFFLYSKLTVDKSRWQQGNVFSCSVMHEALHNHYTQESLSLSP light: DIQMTQSPSSLSASVGDRVTITCRASQDIHKYIAWYQQKPGQAPRLLIQYTSTLQPGVPSRFSGSGSGTDYTFTISSLQPEDIATYYCLQYEQLRTFGGGTKVEIKRTVAAPSVFIFPPSDEQLKSGTASVVCLLNNFYPREAKVQWKVDNALQSGNSQESVTEQDSKDSTYSLSSTLTLSKADYEKHKVYACEVTHQGLSSPVTKSFNRGEC",0.12 nM,310 nM,80 nM,1600 nM,3.4 nM,1 nM
